Reference: patent US20130005646A1 (Novo Nordisk, published 2013)
Starred links: 1 amine or outer side, 2 acyl side, 3 side chain; linkers in the order of their positions; H or OH if unused. Positions of bridges follow the written chain, without caps; N, C: chain ends. *: point of attachment. C20 diacid = O=C(O)CCCCCCCCCCCCCCCCCCC(=O)*; C18 diacid = O=C(O)CCCCCCCCCCCCCCCCC(=O)*; γGlu = O=C(O)[C@H](CCC(=O)[*:2])N[*:1]

B1: N-alpha-[(S)-4-Carboxy-4-(17-carboxyheptadecanoylamino)butyryl]-His-[Glu14,His17,His35]-pramlintide (peptide)
peptide: {C18 diacid-γGlu}-HKCNTATCATQRLAEFLHHSSNNFGPILPPTNVGSHTY-NH2
modifications: disulfide 3-8
SMILES: CC[C@H](C)[C@H](NC(=O)[C@@H]1CCCN1C(=O)CNC(=O)[C@H](Cc1ccccc1)NC(=O)[C@H](CC(N)=O)NC(=O)[C@H](CC(N)=O)NC(=O)[C@H](CO)NC(=O)[C@H](CO)NC(=O)[C@H](Cc1c[nH]cn1)NC(=O)[C@H](Cc1c[nH]cn1)NC(=O)[C@H](CC(C)C)NC(=O)[C@H](Cc1ccccc1)NC(=O)[C@H](CCC(=O)O)NC(=O)[C@H](C)NC(=O)[C@H](CC(C)C)NC(=O)[C@H](CCCNC(=N)N)NC(=O)[C@H](CCC(N)=O)NC(=O)[C@@H](NC(=O)[C@H](C)NC(=O)[C@@H]1CSSC[C@H](NC(=O)[C@H](CCCCN)NC(=O)[C@H](Cc2c[nH]cn2)NC(=O)CC[C@H](NC(=O)CCCCCCCCCCCCCCCCC(=O)O)C(=O)O)C(=O)N[C@@H](CC(N)=O)C(=O)N[C@@H]([C@@H](C)O)C(=O)N[C@@H](C)C(=O)N[C@@H]([C@@H](C)O)C(=O)N1)[C@@H](C)O)C(=O)N[C@@H](CC(C)C)C(=O)N1CCC[C@H]1C(=O)N1CCC[C@H]1C(=O)N[C@H](C(=O)N[C@@H](CC(N)=O)C(=O)N[C@H](C(=O)NCC(=O)N[C@@H](CO)C(=O)N[C@@H](Cc1c[nH]cn1)C(=O)N[C@H](C(=O)N[C@@H](Cc1ccc(O)cc1)C(N)=O)[C@@H](C)O)C(C)C)[C@@H](C)O
B2: N-alpha-[(S)-4-Carboxy-4-(19-carboxynonadecanoylamino)butyryl]-His-His-[Glu14,Arg17,His35]-pramlintide (peptide)
peptide: {C20 diacid-γGlu}-HHKCNTATCATQRLAEFLRHSSNNFGPILPPTNVGSHTY-NH2
modifications: disulfide 4-9
SMILES: CC[C@H](C)[C@H](NC(=O)[C@@H]1CCCN1C(=O)CNC(=O)[C@H](Cc1ccccc1)NC(=O)[C@H](CC(N)=O)NC(=O)[C@H](CC(N)=O)NC(=O)[C@H](CO)NC(=O)[C@H](CO)NC(=O)[C@H](Cc1c[nH]cn1)NC(=O)[C@H](CCCNC(=N)N)NC(=O)[C@H](CC(C)C)NC(=O)[C@H](Cc1ccccc1)NC(=O)[C@H](CCC(=O)O)NC(=O)[C@H](C)NC(=O)[C@H](CC(C)C)NC(=O)[C@H](CCCNC(=N)N)NC(=O)[C@H](CCC(N)=O)NC(=O)[C@@H](NC(=O)[C@H](C)NC(=O)[C@@H]1CSSC[C@H](NC(=O)[C@H](CCCCN)NC(=O)[C@H](Cc2c[nH]cn2)NC(=O)[C@H](Cc2c[nH]cn2)NC(=O)CC[C@H](NC(=O)CCCCCCCCCCCCCCCCCCC(=O)O)C(=O)O)C(=O)N[C@@H](CC(N)=O)C(=O)N[C@@H]([C@@H](C)O)C(=O)N[C@@H](C)C(=O)N[C@@H]([C@@H](C)O)C(=O)N1)[C@@H](C)O)C(=O)N[C@@H](CC(C)C)C(=O)N1CCC[C@H]1C(=O)N1CCC[C@H]1C(=O)N[C@H](C(=O)N[C@@H](CC(N)=O)C(=O)N[C@H](C(=O)NCC(=O)N[C@@H](CO)C(=O)N[C@@H](Cc1c[nH]cn1)C(=O)N[C@H](C(=O)N[C@@H](Cc1ccc(O)cc1)C(N)=O)[C@@H](C)O)C(C)C)[C@@H](C)O
B3: N-alpha-[(S)-4-Carboxy-4-(19-carboxynonadecanoylamino)butyryl]-His-[Glu14,Arg17,His35]-pramlintide (peptide)
peptide: {C20 diacid-γGlu}-HKCNTATCATQRLAEFLRHSSNNFGPILPPTNVGSHTY-NH2
modifications: disulfide 3-8
SMILES: CC[C@H](C)[C@H](NC(=O)[C@@H]1CCCN1C(=O)CNC(=O)[C@H](Cc1ccccc1)NC(=O)[C@H](CC(N)=O)NC(=O)[C@H](CC(N)=O)NC(=O)[C@H](CO)NC(=O)[C@H](CO)NC(=O)[C@H](Cc1c[nH]cn1)NC(=O)[C@H](CCCNC(=N)N)NC(=O)[C@H](CC(C)C)NC(=O)[C@H](Cc1ccccc1)NC(=O)[C@H](CCC(=O)O)NC(=O)[C@H](C)NC(=O)[C@H](CC(C)C)NC(=O)[C@H](CCCNC(=N)N)NC(=O)[C@H](CCC(N)=O)NC(=O)[C@@H](NC(=O)[C@H](C)NC(=O)[C@@H]1CSSC[C@H](NC(=O)[C@H](CCCCN)NC(=O)[C@H](Cc2c[nH]cn2)NC(=O)CC[C@H](NC(=O)CCCCCCCCCCCCCCCCCCC(=O)O)C(=O)O)C(=O)N[C@@H](CC(N)=O)C(=O)N[C@@H]([C@@H](C)O)C(=O)N[C@@H](C)C(=O)N[C@@H]([C@@H](C)O)C(=O)N1)[C@@H](C)O)C(=O)N[C@@H](CC(C)C)C(=O)N1CCC[C@H]1C(=O)N1CCC[C@H]1C(=O)N[C@H](C(=O)N[C@@H](CC(N)=O)C(=O)N[C@H](C(=O)NCC(=O)N[C@@H](CO)C(=O)N[C@@H](Cc1c[nH]cn1)C(=O)N[C@H](C(=O)N[C@@H](Cc1ccc(O)cc1)C(N)=O)[C@@H](C)O)C(C)C)[C@@H](C)O
B4: N-alpha-[(S)-4-Carboxy-4-(17-carboxyheptadecanoylamino)butyryl]-His-[Glu14,Arg17,His35]-pramlintide (peptide)
peptide: {C18 diacid-γGlu}-HKCNTATCATQRLAEFLRHSSNNFGPILPPTNVGSHTY-NH2
modifications: disulfide 3-8
SMILES: CC[C@H](C)[C@H](NC(=O)[C@@H]1CCCN1C(=O)CNC(=O)[C@H](Cc1ccccc1)NC(=O)[C@H](CC(N)=O)NC(=O)[C@H](CC(N)=O)NC(=O)[C@H](CO)NC(=O)[C@H](CO)NC(=O)[C@H](Cc1c[nH]cn1)NC(=O)[C@H](CCCNC(=N)N)NC(=O)[C@H](CC(C)C)NC(=O)[C@H](Cc1ccccc1)NC(=O)[C@H](CCC(=O)O)NC(=O)[C@H](C)NC(=O)[C@H](CC(C)C)NC(=O)[C@H](CCCNC(=N)N)NC(=O)[C@H](CCC(N)=O)NC(=O)[C@@H](NC(=O)[C@H](C)NC(=O)[C@@H]1CSSC[C@H](NC(=O)[C@H](CCCCN)NC(=O)[C@H](Cc2c[nH]cn2)NC(=O)CC[C@H](NC(=O)CCCCCCCCCCCCCCCCC(=O)O)C(=O)O)C(=O)N[C@@H](CC(N)=O)C(=O)N[C@@H]([C@@H](C)O)C(=O)N[C@@H](C)C(=O)N[C@@H]([C@@H](C)O)C(=O)N1)[C@@H](C)O)C(=O)N[C@@H](CC(C)C)C(=O)N1CCC[C@H]1C(=O)N1CCC[C@H]1C(=O)N[C@H](C(=O)N[C@@H](CC(N)=O)C(=O)N[C@H](C(=O)NCC(=O)N[C@@H](CO)C(=O)N[C@@H](Cc1c[nH]cn1)C(=O)N[C@H](C(=O)N[C@@H](Cc1ccc(O)cc1)C(N)=O)[C@@H](C)O)C(C)C)[C@@H](C)O
B5: N-alpha-[(S)-4-Carboxy-4-(19-carboxynonadecanoylamino)butyryl]-His-His-[Glu14,His17,His35]-pramlintide (peptide)
peptide: {C20 diacid-γGlu}-HHKCNTATCATQRLAEFLHHSSNNFGPILPPTNVGSHTY-NH2
modifications: disulfide 4-9
SMILES: CC[C@H](C)[C@H](NC(=O)[C@@H]1CCCN1C(=O)CNC(=O)[C@H](Cc1ccccc1)NC(=O)[C@H](CC(N)=O)NC(=O)[C@H](CC(N)=O)NC(=O)[C@H](CO)NC(=O)[C@H](CO)NC(=O)[C@H](Cc1c[nH]cn1)NC(=O)[C@H](Cc1c[nH]cn1)NC(=O)[C@H](CC(C)C)NC(=O)[C@H](Cc1ccccc1)NC(=O)[C@H](CCC(=O)O)NC(=O)[C@H](C)NC(=O)[C@H](CC(C)C)NC(=O)[C@H](CCCNC(=N)N)NC(=O)[C@H](CCC(N)=O)NC(=O)[C@@H](NC(=O)[C@H](C)NC(=O)[C@@H]1CSSC[C@H](NC(=O)[C@H](CCCCN)NC(=O)[C@H](Cc2c[nH]cn2)NC(=O)[C@H](Cc2c[nH]cn2)NC(=O)CC[C@H](NC(=O)CCCCCCCCCCCCCCCCCCC(=O)O)C(=O)O)C(=O)N[C@@H](CC(N)=O)C(=O)N[C@@H]([C@@H](C)O)C(=O)N[C@@H](C)C(=O)N[C@@H]([C@@H](C)O)C(=O)N1)[C@@H](C)O)C(=O)N[C@@H](CC(C)C)C(=O)N1CCC[C@H]1C(=O)N1CCC[C@H]1C(=O)N[C@H](C(=O)N[C@@H](CC(N)=O)C(=O)N[C@H](C(=O)NCC(=O)N[C@@H](CO)C(=O)N[C@@H](Cc1c[nH]cn1)C(=O)N[C@H](C(=O)N[C@@H](Cc1ccc(O)cc1)C(N)=O)[C@@H](C)O)C(C)C)[C@@H](C)O

target: T1, human calcitonin (a) receptor (human, UniProt P30988 25-474); assay: cell-based or functional assay
T1 sequence (looked up): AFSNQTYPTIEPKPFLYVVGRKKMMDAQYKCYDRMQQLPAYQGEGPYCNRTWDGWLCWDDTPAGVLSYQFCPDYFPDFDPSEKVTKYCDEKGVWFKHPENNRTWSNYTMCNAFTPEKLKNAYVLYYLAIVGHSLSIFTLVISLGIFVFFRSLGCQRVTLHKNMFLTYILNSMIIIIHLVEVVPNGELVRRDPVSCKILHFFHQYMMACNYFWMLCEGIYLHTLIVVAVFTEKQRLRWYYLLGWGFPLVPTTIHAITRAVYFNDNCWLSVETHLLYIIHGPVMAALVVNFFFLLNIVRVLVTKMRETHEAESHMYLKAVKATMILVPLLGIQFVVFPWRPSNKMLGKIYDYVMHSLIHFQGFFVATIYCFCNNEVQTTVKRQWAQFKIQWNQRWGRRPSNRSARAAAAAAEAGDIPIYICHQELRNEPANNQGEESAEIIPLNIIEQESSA

| Binder | CTa receptor human EC50 [nM] |
| --- | --- |
| B1 | 0.099 |
| B2 | 0.615 |
| B3 | 0.43 |
| B4 | 0.947 |
| B5 | 0.115 |

target: T2, human amylin 3(a) receptor (human calcitonin receptor + RAMP-3) (human, UniProt P30988 25-474; O60896 24-148); assay: cell-based or functional assay
T2 sequence (looked up) 1: T1 sequence (looked up)
T2 sequence (looked up) 2: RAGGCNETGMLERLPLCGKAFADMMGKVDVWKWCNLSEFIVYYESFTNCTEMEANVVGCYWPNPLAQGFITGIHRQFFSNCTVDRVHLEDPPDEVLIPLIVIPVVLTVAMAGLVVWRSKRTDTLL

| Binder | Amylin receptor human EC50 [nM] |
| --- | --- |
| B1 | 0.0585 |
| B2 | 0.101 |
| B3 | 0.0935 |
| B4 | 0.0795 |
| B5 | 0.0965 |
